Patent US20220331394A1 (SUSAVION BIOSCIENCES, published 2022)
No end group written: not given here.

T1: IL-4R (human, UniProt P24394 26-232, limits assumed)
T1 construct: construct not described; also called receptor for IL-4
T1 sequence (looked up): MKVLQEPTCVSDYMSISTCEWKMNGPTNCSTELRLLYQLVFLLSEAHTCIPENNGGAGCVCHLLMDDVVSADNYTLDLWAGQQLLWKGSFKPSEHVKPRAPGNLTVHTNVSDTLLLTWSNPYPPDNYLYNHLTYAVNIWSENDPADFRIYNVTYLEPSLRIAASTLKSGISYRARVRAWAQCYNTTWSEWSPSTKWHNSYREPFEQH

T2: DC-SIGN (human, UniProt Q9NNX6 62-404, limits assumed)
T2 construct: construct not described; also called CD209; dendritic cell-specific intercellular adhesion molecule (ICAM)-3 grabbing non-integrin
T2 sequence (looked up): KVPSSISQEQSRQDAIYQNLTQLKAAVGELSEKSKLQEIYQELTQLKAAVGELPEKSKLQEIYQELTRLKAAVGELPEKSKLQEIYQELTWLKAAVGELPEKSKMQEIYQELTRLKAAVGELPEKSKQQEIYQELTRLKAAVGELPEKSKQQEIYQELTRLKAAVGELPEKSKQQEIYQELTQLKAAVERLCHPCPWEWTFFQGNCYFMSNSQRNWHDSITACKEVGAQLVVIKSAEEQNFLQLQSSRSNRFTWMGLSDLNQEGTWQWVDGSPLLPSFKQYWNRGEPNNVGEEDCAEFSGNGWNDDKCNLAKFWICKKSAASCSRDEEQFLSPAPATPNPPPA

T3: recombinant human asialoglycoprotein receptor 1 (ASGPR-1) (human, UniProt P07306 62-291)
T3 construct: extracellular domain; Bought recombinant receptor; also called Ashwell-Morell receptor; CLEC4H1
T3 sequence (looked up): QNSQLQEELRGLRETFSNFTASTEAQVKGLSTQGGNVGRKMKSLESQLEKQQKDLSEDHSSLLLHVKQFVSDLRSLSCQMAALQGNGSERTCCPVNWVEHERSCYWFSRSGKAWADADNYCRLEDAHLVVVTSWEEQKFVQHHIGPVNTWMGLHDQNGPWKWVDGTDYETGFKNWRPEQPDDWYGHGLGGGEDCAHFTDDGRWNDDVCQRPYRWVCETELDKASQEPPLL

T4: recombinant human Ca2+-dependent lectin-type receptor family member 10A (CLEC10A) (human, UniProt Q8IUN9 61-316)
T4 construct: extracellular domain; Bought recombinant receptor; also called CD301; macrophage galactose-type lectin
T4 sequence (looked up): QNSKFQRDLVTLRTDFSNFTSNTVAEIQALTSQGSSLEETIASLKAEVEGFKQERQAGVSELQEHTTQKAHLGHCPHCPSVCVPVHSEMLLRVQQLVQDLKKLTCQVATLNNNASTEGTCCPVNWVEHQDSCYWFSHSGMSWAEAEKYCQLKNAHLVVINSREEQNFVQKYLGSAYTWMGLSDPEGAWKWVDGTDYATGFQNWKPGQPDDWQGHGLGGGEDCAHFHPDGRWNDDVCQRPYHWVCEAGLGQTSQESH

T5: recombinant rat CLEC10A (rat, UniProt P49301 59-306, limits assumed)
T5 construct: construct not described; also called CLEC10A from rat
T5 sequence (looked up): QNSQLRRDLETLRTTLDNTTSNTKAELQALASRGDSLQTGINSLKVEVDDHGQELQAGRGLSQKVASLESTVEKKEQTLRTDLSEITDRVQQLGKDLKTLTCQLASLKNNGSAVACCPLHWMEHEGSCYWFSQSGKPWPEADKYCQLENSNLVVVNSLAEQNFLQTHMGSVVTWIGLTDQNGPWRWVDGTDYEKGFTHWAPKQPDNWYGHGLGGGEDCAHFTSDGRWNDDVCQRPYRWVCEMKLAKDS


How the values were obtained:
[1] = target: T1, IL-4R; test: solid-phase binding assay with recombinant receptor
Method: (§1) Binding Assays Solid-phase binding assays were performed with streptavidin-, protein A/G-, or Nickel-coated microtiter plates (Pierce). His-tagged or Fc-fusion recombinant receptors (R&D Systems, Minneapolis, Minn.) were reconstituted in PBS. Sufficient receptors were added to wells to saturate the coating. His-tagged receptors were added to each well at a 5-fold excess over the stated capacity of the Ni coating to minimize non-specific binding of the peptide. Wells were washed three times with binding buffer (25 mM Tris HCl, pH 7.4, 150 mM NaCl, 0.05% Tween-20) to remove unbound receptor and 50 μL of 2 μM biotinylated peptide in binding buffer were added and allowed to incubate for 1 h. The wells were washed four times with binding buffer and then incubated with 50 μL of 1 μg/mL streptavidin conjugated with peroxidase (Sigma-Aldrich) for 1 h. The wells were washed five times with binding buffer and 50 μL of peroxidase substrate (1-Step™ Ultra TMB, Pierce) were added. After several minutes to allow color development, the reaction was stopped with 50 μL 1 M H₃PO₄ and absorbance was measured at 450 nm. Bound streptavidin was quantitated by the specific activity of peroxidase (absorbance/ng protein conjugate/min) under the conditions of the assay.
(§2) Solid-phase binding assays were performed with recombinant human receptors. Three variations of the binding assay were used in this study, all of which allowed the arms of the tetravalent peptide to have full flexibility. (i) Biotinylated peptide was bound in microtiter wells coated with streptavidin and incubated with recombinant human receptors. After extensive washing, the bound receptor was measured by peroxidase conjugated to a receptor-specific antibody. (ii) The extracellular domains of receptors, which were fused with the Fc domain of immunoglobulin IgG, were bound in wells coated with protein A/G. Biotinylated peptide was incubated with the receptors and, after extensive washing, bound peptide was measured with streptavidin conjugated with peroxidase. Or (iii), recombinant receptors with a poly-His tag were bound to Nickel-coated wells and incubated with biotinylated peptide. svL4 and sv6D contain His residues (FIGS. 1A, 1C) and can bind to the Ni coating, which was minimized by adding sufficient poly-His-tagged receptor to saturate the Ni coating.

[2] = target: T6, Siglec-1 (human, UniProt Q9BZZ2 20-1641, limits assumed); test: as above
T6 construct: construct not described
Method: as §1, §2

[3] = target: T2, DC-SIGN; test: as above
Method: as §1, §2

[4] = target: T7, CLEC9A (human, UniProt Q6UXN8 57-241); test: as above
T7 construct: construct not described
Method: as §1, §2

[5] = target: T8, CD44 (human, UniProt P16070 21-220, limits assumed); test: as above
T8 construct: construct not described; also called receptor for hyaluronic acid
Method: as §1, §2

[6] = target: T3, recombinant human asialoglycoprotein …; test: solid-phase binding assay, double-reciprocal plot of binding vs. peptide concentration
Method: (§3) Binding was detected with streptavidin-peroxidase conjugate. Similar data were obtained in 2 experiments. (FIG. 3C) Inhibition by EGTA of binding of sv6D (pattern) or svL4 (solid) to CLEC10A and ASGPR-1, respectively. EGTA (1 mM) was added to the final concentrations indicated to assays. Retention of bound CLEC10A was determined by incubation with biotinylated anti-CLEC10A (goat IgG, R&D Systems) and detection with streptavidin-peroxidase conjugate (light grey circle). Similar data were obtained in 3 experiments. (FIG. 3D) Binding of svL4 and sv6D to human recombinant CLEC10A and ASGPR-1 as a function of concentration of peptide in the assay. The figure is representative of 4 separate assays.
as §1
(§4) Corresponding values for binding of svL4 to CLEC10A and ASGPR-1 of 0.24±0.04 μM and 0.21±0.03 μM, respectively, were obtained (FIG. 3D).

[7] = target: T4, recombinant human Ca2+-dependent …; test: as above
Method: as §3, §1, §4

[8] = target: T3, recombinant human asialoglycoprotein …; test: solid-phase binding assay with recombinant human receptor
Method: as §1, with “The wells were washed five times with binding buffer and 50 μL of peroxidase substrate (1-Step™ Ultra TMB, Pierce) were added.” left out
(§5) Solid-phase binding assays were performed with recombinant human receptors. […] After extensive washing, the bound receptor was measured by peroxidase conjugated to a receptor-specific antibody. […]

[9] = target: T4, recombinant human Ca2+-dependent …; test: as above
Method: as §1, with “The wells were washed five times with binding buffer and 50 μL of peroxidase substrate (1-Step™ Ultra TMB, Pierce) were added.” left out
as §5

[10] = target: T5, recombinant rat CLEC10A; test: solid-phase competition with biotinylated GalNAc-PAA
Method: as §3, with “FIGS. 3A-3D. sv6D as a mimetic of GalNAc. (FIG. 3A) Inhibition by sv6D of binding of multivalent GalNAc-PAA (GlycoTech Corp., Frederick, Md.) to recombinant rat CLEC10A and human ASGPR-1. The reaction mixture included approximately 200 pmoles of biotinylated GalNc-PAA and increasing concentrations of peptide. The figure includes average values from 3 independent experiments. (FIG. 3B) Biotinylated sv6D or GalNAc-PAA were incubated with rabbit antiserum raised against the 6D sequence (NQHTPR) conjugated to keyhole limpet hemocyanin (KLH). Binding was” for “Binding was”
To further determine whether sv6D interacts with the actual sugar binding site, the ability of sv6D to compete with GalNAc-PAA for binding was assayed. […]

T8 sequence (P16070 21-220 limits assumed): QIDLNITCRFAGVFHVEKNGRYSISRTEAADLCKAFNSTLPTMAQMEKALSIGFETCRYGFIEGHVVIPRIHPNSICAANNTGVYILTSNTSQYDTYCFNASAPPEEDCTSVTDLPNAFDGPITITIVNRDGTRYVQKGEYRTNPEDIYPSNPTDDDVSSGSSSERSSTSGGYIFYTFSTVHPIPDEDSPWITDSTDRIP
T7 sequence (Q6UXN8 57-241 limits assumed): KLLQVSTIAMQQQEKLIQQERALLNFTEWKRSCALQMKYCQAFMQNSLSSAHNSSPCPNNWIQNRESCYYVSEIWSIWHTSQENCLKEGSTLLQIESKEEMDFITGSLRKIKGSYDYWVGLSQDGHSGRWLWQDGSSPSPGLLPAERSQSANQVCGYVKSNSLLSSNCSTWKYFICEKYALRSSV
T6 sequence (Q9BZZ2 20-1641 limits assumed): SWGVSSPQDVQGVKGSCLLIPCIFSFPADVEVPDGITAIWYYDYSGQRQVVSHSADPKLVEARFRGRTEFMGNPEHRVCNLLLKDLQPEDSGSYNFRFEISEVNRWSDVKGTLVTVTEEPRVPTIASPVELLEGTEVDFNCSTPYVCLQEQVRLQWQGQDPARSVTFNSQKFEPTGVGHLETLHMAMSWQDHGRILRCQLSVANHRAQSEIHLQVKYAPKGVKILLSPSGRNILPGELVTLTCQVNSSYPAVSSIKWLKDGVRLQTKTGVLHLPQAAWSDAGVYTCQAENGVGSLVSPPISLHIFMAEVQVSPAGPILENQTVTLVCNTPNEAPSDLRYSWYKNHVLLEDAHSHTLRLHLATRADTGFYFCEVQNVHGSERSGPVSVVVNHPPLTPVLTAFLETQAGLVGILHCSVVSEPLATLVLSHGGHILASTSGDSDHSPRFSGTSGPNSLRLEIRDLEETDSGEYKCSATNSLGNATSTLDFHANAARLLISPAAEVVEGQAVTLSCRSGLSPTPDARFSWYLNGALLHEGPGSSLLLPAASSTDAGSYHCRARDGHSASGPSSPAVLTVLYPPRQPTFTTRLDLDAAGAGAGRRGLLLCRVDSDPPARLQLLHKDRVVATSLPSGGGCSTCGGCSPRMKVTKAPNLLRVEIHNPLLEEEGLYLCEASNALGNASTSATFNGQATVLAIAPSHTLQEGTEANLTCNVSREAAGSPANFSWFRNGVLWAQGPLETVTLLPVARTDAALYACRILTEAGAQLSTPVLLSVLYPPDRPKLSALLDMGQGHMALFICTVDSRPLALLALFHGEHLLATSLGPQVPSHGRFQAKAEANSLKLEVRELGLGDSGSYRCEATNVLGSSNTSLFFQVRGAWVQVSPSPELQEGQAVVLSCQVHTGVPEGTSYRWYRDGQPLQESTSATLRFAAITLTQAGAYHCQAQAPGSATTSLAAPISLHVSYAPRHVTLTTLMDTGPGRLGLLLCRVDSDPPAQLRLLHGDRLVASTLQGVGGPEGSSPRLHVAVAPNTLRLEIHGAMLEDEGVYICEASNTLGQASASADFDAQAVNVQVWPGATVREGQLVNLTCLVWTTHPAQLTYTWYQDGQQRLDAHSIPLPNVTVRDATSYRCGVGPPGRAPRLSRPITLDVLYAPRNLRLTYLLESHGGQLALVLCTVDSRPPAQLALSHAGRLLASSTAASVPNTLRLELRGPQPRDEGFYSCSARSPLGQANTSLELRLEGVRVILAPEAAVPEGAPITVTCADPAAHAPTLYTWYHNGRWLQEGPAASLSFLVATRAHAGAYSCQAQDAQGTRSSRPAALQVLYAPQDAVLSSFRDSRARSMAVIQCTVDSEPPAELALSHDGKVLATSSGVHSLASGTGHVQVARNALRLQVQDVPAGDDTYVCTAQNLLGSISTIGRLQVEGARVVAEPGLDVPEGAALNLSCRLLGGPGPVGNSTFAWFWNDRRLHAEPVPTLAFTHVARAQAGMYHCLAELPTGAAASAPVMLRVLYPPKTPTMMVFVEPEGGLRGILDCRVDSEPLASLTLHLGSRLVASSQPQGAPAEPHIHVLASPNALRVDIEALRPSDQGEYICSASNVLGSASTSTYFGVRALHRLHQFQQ

Kd [6] | Kd [7] | binding result [10] | Binder | binding result [1] | binding result [2] | binding result [3] | binding result [4] | binding result [5] | binding result [8] | binding result [9]
210 nM | 240 nM | – | VQATQSNQHTPRGGGS (also: tetravalent: four arms joined through GGGS linker to branched tri-lysine core, core C-terminus amide or biotinyl-lysinyl-amide, the tie follows from svL4 being the 12-mer whose C-terminal 6-mer is sv6D (NQHTPR); also called tetravalent peptide svL4; full-length svL4) [svL4] | no binding (tested: 2 µM biotinylated peptide) | no binding (tested: 2 µM biotinylated peptide) | no binding (tested: 2 µM biotinylated peptide) | no binding (tested: 2 µM biotinylated peptide) | no binding (tested: 2 µM biotinylated peptide) | – | –
– | – | – | VQATQSGGGS (also: arms on branched tri-lysine core as for svL4, biotinylated at C-terminus of core in binding assays, also called N-terminal half of svL4) [svC1] | – | – | – | – | – | no binding (tested: 2 µM biotinylated peptide) | no binding (tested: 2 µM biotinylated peptide)
120 nM | 150 nM | binds | NQHTPRGGGS (also: tetravalent: four arms joined through GGGS linker to branched tri-lysine core, core C-terminus amide or biotinyl-lysinyl-amide, Tetravalent branched construct: four arms NQHTPR + GGGS linker on a tri-lysine core; Biotinylated in solid-phase assays; also called tetravalent peptide sv6D; C-terminal half of svL4) [sv6D] | no binding (tested: 2 µM biotinylated peptide) | no binding (tested: 2 µM biotinylated peptide) | no binding (tested: 2 µM biotinylated peptide) | no binding (tested: 2 µM biotinylated peptide) | no binding (tested: 2 µM biotinylated peptide) | – | –
